Results reported in the supplement of paper PMC9112550, “Optimization of the antimicrobial peptide Bac7 by deep mutational scanning” (BMC Biology, 2022).
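Also: peptides expressed intracellularly from a pBAD plasmid library in pooled LB shake-flask culture, induced with 0.3% L-arabinose, DNA abundance read by NGS, three biological replicates, DESeq2 with apeglm shrinkage.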

The sequences below were run on Escherichia coli TOP10 (assay: shrunken log2 fold change of peptide-encoding DNA abundance (4.5 h post-induction vs induction); higher = less antimicrobial activity (less host growth inhibition)). Settings: time post-induction: 4.5 h; library: site-saturation at positions 5, 18, 19, 20.
RRIRDRPPRLPRPRPRPAATPRP was tested, and the “shrunken log2 fold change” value was 1.9. For RRIRIRPPRLPRPRPRPGQIPRP, the “shrunken log2 fold change” value was -0.0559. In the case of RRIRFRPPRLPRPRPRPIIYPRP, the “shrunken log2 fold change” value is reported as -0.671. RRIRRRPPRLPRPRPRPGDMPRP was tested, and the “shrunken log2 fold change” value was 0.0846. For RRIRGRPPRLPRPRPRPVCYPRP, the “shrunken log2 fold change” value was 0.833. For RRIRDRPPRLPRPRPRPAGIPRP, the “shrunken log2 fold change” value was -0.00461. In the case of RRIRQRPPRLPRPRPRPTHYPRP, the “shrunken log2 fold change” value is reported as 0.975. With RRIRYRPPRLPRPRPRPFAGPRP the “shrunken log2 fold change” value was 4.12. With RRIRKRPPRLPRPRPRPYGEPRP the “shrunken log2 fold change” value was 0.0585. RRIRYRPPRLPRPRPRPMPPPRP was tested, and the “shrunken log2 fold change” value was -0.331. With RRIRLRPPRLPRPRPRPAWTPRP the “shrunken log2 fold change” value was 0.218. RRIRLRPPRLPRPRPRPMNKPRP was tested, and the “shrunken log2 fold change” value was -0.504. In the case of RRIRPRPPRLPRPRPRPIWIPRP, the “shrunken log2 fold change” value is reported as -0.308. In the case of RRIRSRPPRLPRPRPRPGYCPRP, the “shrunken log2 fold change” value is reported as -0.119. RRIRYRPPRLPRPRPRPDGRPRP was tested, and the “shrunken log2 fold change” value was -0.154. In the case of RRIRCRPPRLPRPRPRPMECPRP, the “shrunken log2 fold change” value is reported as -0.00088. With RRIRSRPPRLPRPRPRPVHQPRP the “shrunken log2 fold change” value was 0.0888. RRIRSRPPRLPRPRPRPRMAPRP was tested, and the “shrunken log2 fold change” value was 1.31. With RRIRSRPPRLPRPRPRPANIPRP the “shrunken log2 fold change” value was -0.484. With RRIRDRPPRLPRPRPRPNRPPRP the “shrunken log2 fold change” value was 0.0951. For RRIRARPPRLPRPRPRPHVFPRP, the “shrunken log2 fold change” value was 0.0326. RRIRLRPPRLPRPRPRPHMLPRP was tested, and the “shrunken log2 fold change” value was -0.264. In the case of RRIRHRPPRLPRPRPRPGESPRP, the “shrunken log2 fold change” value is reported as -0.0414. For RRIRIRPPRLPRPRPRPRETPRP, the “shrunken log2 fold change” value was 0.0956. RRIRERPPRLPRPRPRPSQIPRP was tested, and the “shrunken log2 fold change” value was 0.012. With RRIRYRPPRLPRPRPRPRFGPRP the “shrunken log2 fold change” value was 0.345. For RRIRTRPPRLPRPRPRPLPAPRP, the “shrunken log2 fold change” value was 0.364. In the case of RRIRYRPPRLPRPRPRPHWMPRP, the “shrunken log2 fold change” value is reported as -0.233. RRIRIRPPRLPRPRPRPLCYPRP was tested, and the “shrunken log2 fold change” value was -1.07. In the case of RRIRMRPPRLPRPRPRPIFIPRP, the “shrunken log2 fold change” value is reported as 2.07. In the case of RRIRTRPPRLPRPRPRPGSCPRP, the “shrunken log2 fold change” value is reported as 0.083. For RRIRFRPPRLPRPRPRPIPTPRP, the “shrunken log2 fold change” value was 0.0793. RRIRIRPPRLPRPRPRPYQQPRP was tested, and the “shrunken log2 fold change” value was -0.0163. RRIRERPPRLPRPRPRPKATPRP was tested, and the “shrunken log2 fold change” value was 0.205. With RRIRQRPPRLPRPRPRPWAVPRP the “shrunken log2 fold change” value was 0.066. With RRIRCRPPRLPRPRPRPLNGPRP the “shrunken log2 fold change” value was -0.444. With RRIRARPPRLPRPRPRPAKDPRP the “shrunken log2 fold change” value was 0.316. In the case of RRIRYRPPRLPRPRPRPDKNPRP, the “shrunken log2 fold change” value is reported as -0.558. With RRIRCRPPRLPRPRPRPRARPRP the “shrunken log2 fold change” value was 0.708. RRIRWRPPRLPRPRPRPCLQPRP was tested, and the “shrunken log2 fold change” value was -0.21. RRIRRRPPRLPRPRPRPFYRPRP was tested, and the “shrunken log2 fold change” value was -0.0117. RRIRCRPPRLPRPRPRPDGTPRP was tested, and the “shrunken log2 fold change” value was 0.105. In the case of RRIRHRPPRLPRPRPRPLNFPRP, the “shrunken log2 fold change” value is reported as -0.0479. For RRIRSRPPRLPRPRPRPLTSPRP, the “shrunken log2 fold change” value was 1.55. For RRIRLRPPRLPRPRPRPKVPPRP, the “shrunken log2 fold change” value was 0.0509. In the case of RRIRRRPPRLPRPRPRPLKKPRP, the “shrunken log2 fold change” value is reported as 0.169. With RRIRARPPRLPRPRPRPSKWPRP the “shrunken log2 fold change” value was -0.101. RRIRPRPPRLPRPRPRPSEGPRP was tested, and the “shrunken log2 fold change” value was -0.148. For RRIRSRPPRLPRPRPRPQVMPRP, the “shrunken log2 fold change” value was -0.193. RRIRQRPPRLPRPRPRPNQPPRP was tested, and the “shrunken log2 fold change” value was -0.0757. For RRIRQRPPRLPRPRPRPLFFPRP, the “shrunken log2 fold change” value was -0.00141. In the case of RRIRARPPRLPRPRPRPCWLPRP, the “shrunken log2 fold change” value is reported as 0.294. For RRIRFRPPRLPRPRPRPAVHPRP, the “shrunken log2 fold change” value was -0.0819. For RRIRMRPPRLPRPRPRPQGWPRP, the “shrunken log2 fold change” value was 1.01. With RRIRQRPPRLPRPRPRPMQRPRP the “shrunken log2 fold change” value was 0.416. For RRIRTRPPRLPRPRPRPDEGPRP, the “shrunken log2 fold change” value was -0.0183. With RRIRYRPPRLPRPRPRPTTRPRP the “shrunken log2 fold change” value was -0.193. With RRIRPRPPRLPRPRPRPFFDPRP the “shrunken log2 fold change” value was -0.12. RRIRQRPPRLPRPRPRPGRTPRP was tested, and the “shrunken log2 fold change” value was -0.433. RRIRKRPPRLPRPRPRPRCDPRP was tested, and the “shrunken log2 fold change” value was 0.288. For RRIRDRPPRLPRPRPRPCVAPRP, the “shrunken log2 fold change” value was 0.633. In the case of RRIRERPPRLPRPRPRPCSVPRP, the “shrunken log2 fold change” value is reported as -0.0625. In the case of RRIRARPPRLPRPRPRPDYPPRP, the “shrunken log2 fold change” value is reported as -0.0306. With RRIRPRPPRLPRPRPRPISFPRP the “shrunken log2 fold change” value was -0.101. For RRIRTRPPRLPRPRPRPACSPRP, the “shrunken log2 fold change” value was 0.19. In the case of RRIRDRPPRLPRPRPRPPVWPRP, the “shrunken log2 fold change” value is reported as 1.04. RRIRKRPPRLPRPRPRPTKGPRP was tested, and the “shrunken log2 fold change” value was 0.0795. In the case of RRIRIRPPRLPRPRPRPHHSPRP, the “shrunken log2 fold change” value is reported as -0.46. RRIRCRPPRLPRPRPRPVAFPRP was tested, and the “shrunken log2 fold change” value was -0.169. With RRIRGRPPRLPRPRPRPRTAPRP the “shrunken log2 fold change” value was 1.12. RRIRVRPPRLPRPRPRPNAVPRP was tested, and the “shrunken log2 fold change” value was -0.223. With RRIRARPPRLPRPRPRPANIPRP the “shrunken log2 fold change” value was -0.19. In the case of RRIRLRPPRLPRPRPRPVSSPRP, the “shrunken log2 fold change” value is reported as 0.242. For RRIRRRPPRLPRPRPRPDCRPRP, the “shrunken log2 fold change” value was 0.0322. RRIRPRPPRLPRPRPRPWGCPRP was tested, and the “shrunken log2 fold change” value was -0.0706.
